Where no end group is shown, it is not given here. The star is where a group is joined. Biotin = O=C1N[C@H]2[C@H](CS[C@H]2CCCCC(=O)*)N1
Assays:
[1] = molecular target: T1, Human fibrin γ377-395 (Human P2 peptide) (human); assay: BLI (ForteBio Octet): N-term biotinylated fibrin P2G peptide on SA tip, IgG in solution 100 nM (avid)
T1 construct: In the crystal models, residues 410-421 of chain A are ordered; also called fibrin P2 peptide; fibrin P2 gamma peptide
T1 peptide: Biotin-YSMKKTTMKIIPFNRLTIG

[2] = molecular target: T1, Human fibrin γ377-395 (Human P2 peptide); assay: BLI (ForteBio Octet): N-term biotinylated fibrin P2G peptide on SA tip, IgG in solution 100 nM (avid) [Cont.]
[3] = molecular target: T1, Human fibrin γ377-395 (Human P2 peptide); assay: BLI (ForteBio Octet): N-term biotinylated fibrin P2G peptide on SA tip, IgG in solution 100 nM (avid)
[4] = molecular target: T1, Human fibrin γ377-395 (Human P2 peptide); assay: ELISA (N-P2 ELISA), RFU readout
[5] = molecular target: T1, Human fibrin γ377-395 (Human P2 peptide); assay: ELISA (N-P2 ELISA), RFU readout; C is the duplicate of clone 61278
[6] = molecular target: T1, Human fibrin γ377-395 (Human P2 peptide); assay: BLI (Octet): N-term biotinylated P2G peptide on SA sensor, 100nM Fab in solution
[7] = molecular target: T1, Human fibrin γ377-395 (Human P2 peptide); assay: BLI (ForteBio Octet): N-term biotinylated fibrin P2G peptide on SA tip, Fab in solution 100 nM (monovalent)
[8] = molecular target: T1, Human fibrin γ377-395 (Human P2 peptide); assay: BLI (ForteBio Octet): N-term biotinylated fibrin P2G peptide on SA tip, Fab in solution 100 nM (monovalent) [Cont.]
[9] = molecular target: T1, Human fibrin γ377-395 (Human P2 peptide); assay: BLI (ForteBio Octet): N-term biotinylated fibrin P2G peptide on SA tip, Fab in solution 100 nM (monovalent)
[10] = molecular target: T1, Human fibrin γ377-395 (Human P2 peptide); assay: BLI (Octet RED384), Fab on P2 peptide; on-rate phase 0-300 s, off-rate phase 300-600 s
[11] = molecular target: T1, Human fibrin γ377-395 (Human P2 peptide); assay: BLI (Octet): N-term biotinylated P2G peptide on SA sensor, 100nM Fab in solution; the same panel stands twice in the middle row

B1: 60140 (IgG) (antibody, V domains shown)
VH: QVQLVQSGAEVKKPGASVKVSCKASGYTFTSVWIHWVRQAPGQGLEWIGLIDPSDSYTNYNQKFRGRATLTVDTSTSTAYMELSSLRSEDTAVYYCASSRPTGGWGQGTTVTVSS
VL: DIVMTQSPLSLPVTPGEPASISCRSSKSLLHSSGITYLSWYLQKPGQSPQLLIYQMSNLASGVPDRFSGSGSGTDFTLKISRVEAEDVGVYYCAQNLELPLTFGGGTKVEIKR
B1: binds [1].

B2: 60183 (IgG) (antibody, V domains shown)
VH: QVQLVQSGAEVKKPGASVKVSCKASGYTFTSTWIHWVRQAPGQGLEWMGLIDPSDSYTNYNQKFRGRVTMTVDTSTSTAYMELSSLRSEDTAVYYCASSKPTGGWGQGTTVTVSS
VL: DIVMTQSPLSLPVTPGEPASISCRSSKSLLHSSGITYLSWYLQKPGQSPQLLIYQMSNLASGVPDRFSGSGSGTDFTLKISRVEAEDVGVYYCAQNLELPLTFGGGTKVEIKR
notes: also called ADI-60183; clone 60183 IgG
B2: binds [2].

B3: 61255 (IgG) (antibody, V domains shown)
VH: QVQLVQSGAEVKKPGASVKVSCKASGYTFTSYWIHWVRQAPGQGLEWIGLIDPSDSYTNYNQKFRGRATLTVDTSTSTAYMELSSLRSEDTAVYYCASSDATGGWGQGTTVTVSS
VL: DIVMTQSPLSLPVTPGEPASISCRSSKSLLHSSGHTYLSWYLQKPGQPPQLLIYQMSNLASGVPDRFSGSGSGTDFTLKISRVEAEDVGVYYCAQALELPLTFGGGTKVEIKR
notes: also called clone 61255 IgG
B3: binds [2].

B4: 61273 (IgG) (antibody, V domains shown)
VH: QVQLVQSGAEVKKPGASVKVSCKASGYTFTSTWIHWVRQAPGQGLEWMGLIDPSDSYTNYNQKFRGRVTMTVDTSTSTAYMELSSLRSEDTAVYYCASSKPTGGWGQGTTVTVSS
VL: DIVMTQSPLSLPVTPGEPASISCRSSKSLLHSSGITYISWYLQKPGQSPQLLIYQMSNLASGVPDRFSGSGSGTDFTLKISRVEAEDVGVYYCAQNLELPLTFGGGTKVEIKR
notes: also called ADI-61273; clone 61273 IgG
B4: binds [2].

B5: 61275 (IgG) (antibody, V domains shown)
VH: QVQLVQSGAEVKKPGASVKVSCKASGYTFTSSWIHWVRQAPGQGLEWMGLIDPSDSYTNYNQKFRGRVTMTVDTSTSTAYMELSSLRSEDTAVYYCASSAPTGGWGQGTTVTVSS
VL: DIVMTQSPLSLPVTPGEPASISCRSSKSLLHSSGITYLSWYLQKPGQSPQLLIYQMSNLASGVPDRFSGSGSGTDFTLKISRVEAEDVGVYYCAQALELPLTFGGGTKVEIKR
B5: binds [1].

B6: 61285 (IgG) (antibody, V domains shown)
VH: QVQLVQSGAEVKKPGASVKVSCKASGYTFTSSWIHWVRQAPGQGLEWMGLIDPSDSYTNYNQKFRGRVTMTVDTSTSTAYMELSSLRSEDTAVYYCASSDPHGGWGQGTTVTVSS
VL: DIVMTQSPLSLPVTPGEPASISCRSSKSLLHSSGITYLSWYLQKPGQSPQLLIYQMSNLASGVPDRFSGSGSGTDFTLKISRVEAEDVGVYYCAQSLELPLTFGGGTKVEIKR
B6: binds [1].

B7: ADI-61283 (IgG) (antibody, V domains shown)
VH: QVQLVQSGAEVKKPGASVKVSCKASGYTFTSAWIHWVRQAPGQGLEWMGLIDPSDSYTNYNQKFRGRVTMTVDTSTSTAYMELSSLRSEDTAVYYCASSDPYGGWGQGTTVTVSS
VL: DIVMTQSPLSLPVTPGEPASISCRSSKSLLHSSGITYLSWYLQKPGQSPQLLIYQMSNKASGVPDRFSGSGSGTDFTLKISRVEAEDVGVYYCAQSLELPLTFGGGTKVEIKR
B7: binds [3].

B8: antibody clone 61278 (ADI-61278 IgG) (antibody, V domains shown)
VH: QVQLVQSGAEVKKPGASVKVSCKASGYTFTSYWIHWVRQAPGQGLEWMGLIDPSDSYTNYNQKFRGRVTMTVDTSTSTAYMELSSLRSEDTAVYYCASSDATGGWGQGTTVTVSS
VL: DIVMTQSPLSLPVTPGEPASISCRSSKSLLHSSGITYLSWYLQKPGQSPQLLIYQMSNLASGVPDRFSGSGSGTDFTLKISRVEAEDVGVYYCAQALELPLTFGGGTKVEIKR
An EC50 [4] of 0.13 nM and an EC50 [5] of 0.11 nM were found for B8 in this work.

B9: 56666 (parent) (Fab) (Fab, V domains shown)
VH: QVQLVQSGAEVKKPGASVKVSCKASGYTFTSYWIHWVRQAPGQGLEWMGLIDPSDSYTNYNQKFRGRVTMTVDTSTSTAYMELSSLRSEDTAVYYCASSDPTGGWGQGTTVTVSS
VL: DIVMTQSPLSLPVTPGEPASISCRSSKSLLHSSGITYLSWYLQKPGQSPQLLIYQMSNLASGVPDRFSGSGSGTDFTLKISRVEAEDVGVYYCAQNLELPLTFGGGTKVEIKR
notes: also called ADI-56666; clone 56666 Fab
A Kd [6] of 1300 nM was found for B9 in this work.

B10: 56657 (parent) (Fab) (Fab, V domains shown)
VH: QVQLVQSGAEVKKPGASVKVSCKASGYTFTSYWIHWVRQAPGQGLEWIGLIDPSDSYTNYNQKFRGRATLTVDTSTSTAYMELSSLRSEDTAVYYCASSDPTGGWGQGTTVTVSS
VL: DIVMTQSPLSLPVTPGEPASISCRSSKSLLHSSGITYLSWYLQKPGQSPQLLIYQMSNLASGVPDRFSGSGSGTDFTLKISRVEAEDVGVYYCAQNLELPLTFGGGTKVEIKR
notes: also called ADI-56657; clone 56657 Fab
A Kd [6] of 264 nM was found for B10 in this work.

B11: 60140 (Fab) (Fab, V domains shown)
VH: QVQLVQSGAEVKKPGASVKVSCKASGYTFTSVWIHWVRQAPGQGLEWIGLIDPSDSYTNYNQKFRGRATLTVDTSTSTAYMELSSLRSEDTAVYYCASSRPTGGWGQGTTVTVSS
VL: DIVMTQSPLSLPVTPGEPASISCRSSKSLLHSSGITYLSWYLQKPGQSPQLLIYQMSNLASGVPDRFSGSGSGTDFTLKISRVEAEDVGVYYCAQNLELPLTFGGGTKVEIKR
B11: binds [7].

B12: 60183 (Fab) (Fab, V domains shown)
VH: QVQLVQSGAEVKKPGASVKVSCKASGYTFTSTWIHWVRQAPGQGLEWMGLIDPSDSYTNYNQKFRGRVTMTVDTSTSTAYMELSSLRSEDTAVYYCASSKPTGGWGQGTTVTVSS
VL: DIVMTQSPLSLPVTPGEPASISCRSSKSLLHSSGITYLSWYLQKPGQSPQLLIYQMSNLASGVPDRFSGSGSGTDFTLKISRVEAEDVGVYYCAQNLELPLTFGGGTKVEIKR
notes: also called ADI-60183; clone 60183 Fab
B12: binds [8].

B13: 61255 (Fab) (Fab, V domains shown)
VH: QVQLVQSGAEVKKPGASVKVSCKASGYTFTSYWIHWVRQAPGQGLEWIGLIDPSDSYTNYNQKFRGRATLTVDTSTSTAYMELSSLRSEDTAVYYCASSDATGGWGQGTTVTVSS
VL: DIVMTQSPLSLPVTPGEPASISCRSSKSLLHSSGHTYLSWYLQKPGQPPQLLIYQMSNLASGVPDRFSGSGSGTDFTLKISRVEAEDVGVYYCAQALELPLTFGGGTKVEIKR
notes: also called clone 61255 Fab
B13: binds [8].

B14: 61273 (Fab) (Fab, V domains shown)
VH: QVQLVQSGAEVKKPGASVKVSCKASGYTFTSTWIHWVRQAPGQGLEWMGLIDPSDSYTNYNQKFRGRVTMTVDTSTSTAYMELSSLRSEDTAVYYCASSKPTGGWGQGTTVTVSS
VL: DIVMTQSPLSLPVTPGEPASISCRSSKSLLHSSGITYISWYLQKPGQSPQLLIYQMSNLASGVPDRFSGSGSGTDFTLKISRVEAEDVGVYYCAQNLELPLTFGGGTKVEIKR
notes: also called ADI-61273; clone 61273 Fab
B14: binds [8].

B15: 61275 (Fab) (Fab, V domains shown)
VH: QVQLVQSGAEVKKPGASVKVSCKASGYTFTSSWIHWVRQAPGQGLEWMGLIDPSDSYTNYNQKFRGRVTMTVDTSTSTAYMELSSLRSEDTAVYYCASSAPTGGWGQGTTVTVSS
VL: DIVMTQSPLSLPVTPGEPASISCRSSKSLLHSSGITYLSWYLQKPGQSPQLLIYQMSNLASGVPDRFSGSGSGTDFTLKISRVEAEDVGVYYCAQALELPLTFGGGTKVEIKR
B15: binds [7].

B16: 61285 (Fab) (Fab, V domains shown)
VH: QVQLVQSGAEVKKPGASVKVSCKASGYTFTSSWIHWVRQAPGQGLEWMGLIDPSDSYTNYNQKFRGRVTMTVDTSTSTAYMELSSLRSEDTAVYYCASSDPHGGWGQGTTVTVSS
VL: DIVMTQSPLSLPVTPGEPASISCRSSKSLLHSSGITYLSWYLQKPGQSPQLLIYQMSNLASGVPDRFSGSGSGTDFTLKISRVEAEDVGVYYCAQSLELPLTFGGGTKVEIKR
B16: binds [7].

B17: ADI-61283 (Fab) (Fab, V domains shown)
VH: QVQLVQSGAEVKKPGASVKVSCKASGYTFTSAWIHWVRQAPGQGLEWMGLIDPSDSYTNYNQKFRGRVTMTVDTSTSTAYMELSSLRSEDTAVYYCASSDPYGGWGQGTTVTVSS
VL: DIVMTQSPLSLPVTPGEPASISCRSSKSLLHSSGITYLSWYLQKPGQSPQLLIYQMSNKASGVPDRFSGSGSGTDFTLKISRVEAEDVGVYYCAQSLELPLTFGGGTKVEIKR
B17: binds [9].

B18: Fab of antibody clone 61278 (ADI-61278 Fab) (Fab, V domains shown, not shown: a dimerising Fc or GST)
VH: QVQLVQSGAEVKKPGASVKVSCKASGYTFTSYWIHWVRQAPGQGLEWMGLIDPSDSYTNYNQKFRGRVTMTVDTSTSTAYMELSSLRSEDTAVYYCASSDATGGWGQGTTVTVSS
VL: DIVMTQSPLSLPVTPGEPASISCRSSKSLLHSSGITYLSWYLQKPGQSPQLLIYQMSNLASGVPDRFSGSGSGTDFTLKISRVEAEDVGVYYCAQALELPLTFGGGTKVEIKR
notes: The crystal model holds chain H residues 1-126 and 133-214 and chain L residues 1-213; also called Fab ADI61278
A Kd [10] of 104 nM and a Kd [11] of 38 nM were found for B18 in this work.
